Test results as given in paper PMC8989523 (Nucleic Acids Research, 2022).

Target: the molecule itself
Test: dynamic light scattering

B1: hPXR LBD (residues 140–434) with an N-terminal His tag and an SRC-1 fragment tethered at the C-terminus (domain or fragment)
chain: VQGLTEEQRMMIRELMDAQMKTFDTTFSHFKNFRLPGVLSSGCELPESLQAPSREEAAKWSQVRKDLCSLKVSLQLRGEDGSVWNYKPPADSGGKEIFSLLPHMADMSTYMFKGIISFAKVISYFRDLPIEDQISLLKGAAFELCQLRFNTVFNAETGTWECGRLSYCLEDTAGGFQQLLLEPMLKFHYMLKKLQLHEEEYVLMQAISLFSPDRPGVLQHRVVDQLQEQFAITLKSYIECNRPQPAHRFLFLKIMAMLTELRSINAQHTQRLLRIQDIHPFATPLMQELFGITGSGGSGGSSHSSLTERHKILHRLLQEGSPS
- stoichiometry N: 2
